Measurements published in patent publication US20180071389A1 (HER MAJESTY THE QUEEN IN THE RIGHT OF CANADA AS REPRESENTED …, published 2018).

Columns and labels:
Test in all cases: ELISA, antigen coated 0.3 µg/well, serial dilutions of MAb
sGP 1-295aa = biological target: T1, sGP 1-295aa (Ebola virus (ZEbov by the title of …, UniProt P60170 33-295))
T1 sequence: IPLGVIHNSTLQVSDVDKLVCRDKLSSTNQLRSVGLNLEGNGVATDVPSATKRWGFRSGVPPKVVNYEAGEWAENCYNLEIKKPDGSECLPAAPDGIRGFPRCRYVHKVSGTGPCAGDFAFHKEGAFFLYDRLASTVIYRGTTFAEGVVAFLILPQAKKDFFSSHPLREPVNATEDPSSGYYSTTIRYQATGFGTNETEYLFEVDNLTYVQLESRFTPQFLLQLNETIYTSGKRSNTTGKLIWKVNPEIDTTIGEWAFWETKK

GP1 1-501aa = biological target: T2, GP1 1-501aa (Ebola virus (ZEbov by the title of …, UniProt Q05320 33-501))
T2 sequence: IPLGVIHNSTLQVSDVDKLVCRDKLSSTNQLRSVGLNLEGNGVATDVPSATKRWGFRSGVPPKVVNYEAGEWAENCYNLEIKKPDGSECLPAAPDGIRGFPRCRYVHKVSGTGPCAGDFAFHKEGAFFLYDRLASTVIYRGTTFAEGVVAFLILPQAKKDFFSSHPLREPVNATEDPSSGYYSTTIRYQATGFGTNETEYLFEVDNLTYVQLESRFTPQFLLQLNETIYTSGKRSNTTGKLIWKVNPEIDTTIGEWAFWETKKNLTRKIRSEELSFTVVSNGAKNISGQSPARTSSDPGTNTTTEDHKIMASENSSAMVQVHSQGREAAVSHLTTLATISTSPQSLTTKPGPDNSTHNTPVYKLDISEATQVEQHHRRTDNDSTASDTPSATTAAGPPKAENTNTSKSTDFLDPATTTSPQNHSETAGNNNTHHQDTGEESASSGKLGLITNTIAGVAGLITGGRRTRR

Mucin domain 333-458aa = biological target: T3, Mucin domain 333-458aa (Ebola virus (ZEbov by the title of …, UniProt Q05320 333-458))
T3 sequence: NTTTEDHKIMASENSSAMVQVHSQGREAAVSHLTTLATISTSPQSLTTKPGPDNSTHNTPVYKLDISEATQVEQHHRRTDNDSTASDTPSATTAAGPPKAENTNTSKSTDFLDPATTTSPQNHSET

B1: monoclonal antibody 5E6 (antibody, V domains shown)
VH: GGGLVKPGGSLKLSCAASGSAFSRYDMSWVRQTPEKRLEWVAYISRGGGFIYYPDTVKGRFTISRDNAKNTLYLQMSSLKSDDTAMYYCARHVYYGSSPLYAMDYWGQGTSVTVSS
VL: SASFSLGASAKLTCTLSSQHSTFTIEWYQQQPLKPPKYVMELKKDGSHSTGDGIPDRFSGSSSGADRYLSISNIQPEDEAIYICGVGDTINEQFVYVFGGGTKVTVLG
**Q.** Does B1 bind (sGP 1-295aa)?
**A.** Result: no binding (tested: Cut off was 2X background)

B2: monoclonal antibody 7C9 (antibody, V domains shown)
VH: GAELVKPGASVKLSCTASGFNIKDTYMHWVKERPDKGLEWIGRIDPANGNTKCDSRFQGKATITADTSSNTAYLQLSSLTSEDTAVYYCARRIYFGKGFDFWGQGTTLTVSS
VL: SSLSVSAGEKVTMSCKSSQSLFNSGDQKNYLAWYQQKPGQPPKLLIYGASTRESGVPDRFTGSGSGTDFTLTISSVQAEDLAVYYCQNDQFYPPTFGDGTKLDLKR
**Q.** Does B2 bind (sGP 1-295aa)?
**A.** Result: no binding (tested: Cut off was 2X background)

B3: monoclonal antibody 2G4 (antibody, V domains shown)
VH: GGGLMQPGGSMKLSCVASGFTFSNYWMNWVRQSPEKGLEWVAEIRLKSNNYATHYAESVKGRFTISRDDSKRSVYLQMNTLRAEDTGIYYCTRGNGNYRAMDYWGQGTSVTVSS
VL: ASLSVSVGETVSITCRASENIYSSLAWYQQKQGKSPQLLVYSATILADGVPSRFSGSGSGTQYSLKINSLQSEDFGTYYCQHFWGTPYTFGGGTKLEIKR
**Q.** Does B3 bind (GP1 1-501aa)?
**A.** Result: no binding (tested: Cut off was 2X background)

**Q.** Does B3 bind (sGP 1-295aa)?
**A.** Result: no binding (tested: Cut off was 2X background)

**Q.** Does B3 bind (Mucin domain 333-458aa)?
**A.** Result: no binding (tested: Cut off was 2X background)

B4: monoclonal antibody 1H3 (antibody, V domains shown)
VH: GAELVKPGASVKLSCTASGFNIKDTYIHWVKQGPEQGLEWIGRIDPANGNTKYDPKFQGKATITADTSSNTAYLQLSGLTSEDTAVYYCARESRISTMLTTGYFDYWGQGTTLTVSS
VL: AIMSASPGEKVTMTCSASSSVSYMYWYQQKPGSSPRLLIYDTSNLASGVPVRFSGSGSGTSYSLTISRMEAEDAATYYCQQWSSYPYTFGGGTKLEIKR
**Q.** Does B4 bind (Mucin domain 333-458aa)?
**A.** Result: no binding (tested: Cut off was 2X background)

B5: monoclonal antibody 7G4 (antibody, V domains shown)
VH: GGGLVQPGGSLRLSCATSGFTFTDHYMGWVRQPPGKALEWLAFVRYKAKGYTTEYTASVKGRFTISRDNSQSILYLQMNTLRTEDSATYYCARDRGGYVGAMDYWGQGTSVTVSS
VL: LSLPVSLGDQASISCRSSQSLVHRNGNTYFHWYLQKPGQSPKLLIYKVSNRFSGVPDRFSGSGSGTDFTLKISRVEAEDLGVYFCSQSTHVPYTFGGGTKLEIKR
**Q.** Does B5 bind (sGP 1-295aa)?
**A.** Result: no binding (tested: Cut off was 2X background)

B6: monoclonal antibody 4G7 (antibody, V domains shown)
VH: GPELEMPGASVKISCKASGSSFTGFSMNWVKQSNGKSLEWIGNIDTYYGGTTYNQKFKGKATLTVDKSSSTAYMQLKSLTSEDSAVYYCARSAYYGSTFAYWGQGTLVTVSA
VL: ASLSASVGETVTITCRASENIYSYLAWYQQKQGKSPQLLVYNAKTLIEGVPSRFSGSGSGTQFSLKINSLQPEDFGSYFCQHHFGTPFTFGSGTELEIKR
**Q.** Which results are given for B6?
**A.** binding result (sGP 1-295aa): no binding (tested: Cut off was 2X background); binding result (Mucin domain 333-458aa): no binding (tested: Cut off was 2X background)

B7: monoclonal antibody 5D2 (antibody, V domains shown)
VH: GPGLVRPSQSLSLTCTVTGYSITSDYAWNWIRQFPGNKLEWLGYITNTGSTGFNPSLKSRISITRDTSKNQFFLQLISVTTEDTATYHCARGLAYWGQGTLVTVSA
VL: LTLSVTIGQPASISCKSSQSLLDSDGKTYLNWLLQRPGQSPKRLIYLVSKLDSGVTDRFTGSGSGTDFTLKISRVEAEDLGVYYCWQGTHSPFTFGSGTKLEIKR
**Q.** Does B7 bind (sGP 1-295aa)?
**A.** Result: no binding (tested: Cut off was 2X background)

B8: monoclonal antibody 10C8 (antibody, V domains shown)
VH: GAELVRSGASVKLSCTSSGFNIKDYFLHWVKQRPEQGLEWIGWIDPENGDTEYAPKFQDKATMTADTSSNTAYLHLSSLTSEDTGVYYCNADGNYGKNYWGQGTTLTVSS
VL: LSLPVSLGDQASISCRSSQSLVHSNGNTFLHWYLQKPGQSPKLLIYRVSNRFSGVPDRFSGSGSGTDFTLKISRVEAEDLGVYFCSQSTHVPPYTFGGGTKLEIKR
**Q.** Does B8 bind (sGP 1-295aa)?
**A.** Result: no binding (tested: Cut off was 2X background)
